Assay results published in patent US20170166624A1 (University of Texas, published 2017).
Values joined by “and” are separate entries in the source; they are usually repeats but may differ in a detail not shown here. Equal entries are not always repeated.

Key:
TGF-β3 = biological target: T1, TGF-β3 (UniProt P10600 301-412); assay: SPR competition, receptor with 0.8 nM TGF-β3 over immobilized 1D11
T1 sequence (looked up): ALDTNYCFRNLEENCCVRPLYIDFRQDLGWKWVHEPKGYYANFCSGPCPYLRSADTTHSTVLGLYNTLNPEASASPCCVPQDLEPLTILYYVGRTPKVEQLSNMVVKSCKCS
Description: FIG. 6. SPR competition binding data in which increasing concentrations of RII (R), RIII (EU), and RII-RIII (REU) were pre-incubated with 0.8 nM TGF-β3 for 16 h and then injected over a high-density (20000 RU) SPR surface with the TGF-β monoclonal antibody 1D11. Data is presented in terms of the initial slope (which is directly proportional to the concentration of the free TGF-β3 concentration) as a function of the competitor (R, EU, or REU) concentration. Two independent measurements were performed for each of the receptor constructs studied (designated by −a and −b in the legend).
The initial slope of these sensorgrams, which is a linear function of the free TGF-β3 concentration, was then plotted as a function of the concentration of RII, RIII (EU), or RII-RIII (REU) (FIG. 6).

[1] = biological target: T2, TGF-β2 K25R I92V K94R (TGF-β2TM) (UniProt P61812 303-414, K25R; I92V; K94R); assay: SPR, RII injected over immobilized TGF-β2TM with or without 80 nM RIII (competitor RIII)
T2 construct: mature
T2 sequence (looked up): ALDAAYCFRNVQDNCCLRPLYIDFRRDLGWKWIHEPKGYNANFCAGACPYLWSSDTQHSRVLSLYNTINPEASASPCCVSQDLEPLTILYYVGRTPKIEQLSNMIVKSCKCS
Description: (§1) FIG. 2. RII (R) and RIII (EU) form a 1:1:1 complex with TGF-β homodimers. (a) SPR sensorgrams in which increasing concentrations of RII and RIII were injected over a SPR sensor surface with immobilized TGF-β2TM. Mass normalized sensorgrams are shown in panels on the left. Plots of the mass normalized equilibrium response (Req) as a function of receptor concentration ([Receptor]), along with fits to Req=(Rₘₐₓ×[Receptor])/(Kd+[Receptor]), are shown on the right.
The TGF-β type III receptor potentiates the binding of the TGF-β type II receptor, but reduces its binding stoichiometry to one per TGF-β homodimer. This was shown by performing SPR experiments in which increasing concentrations of RII were injected over immobilized TGF-β2TM in the absence or presence of a saturating concentration of RIII (80 nM) (FIG. 2b).

[2] = biological target: T2, TGF-β2 K25R I92V K94R (TGF-β2TM); assay: SDS-PAGE densitometry of the SEC-isolated complex (TGF-β2TM 51.6 pmol)
Excerpt: RII:RIII:TGF-β2TM form a stable non-disassociating 1:1:1 complex in solution. […] The mixture was applied to a Superdex 200 size exclusion chromatography column and the UV absorbance of the column eluate at 280 nm was monitored. […] To determine the stoichiometry of the complex, a sample of the isolated RII:RIII:TGFβ2-TM complex was run on an SDS-PAGE gel along with known amounts of the individual components (FIG. 3d).

[3] = biological target: T2, TGF-β2 K25R I92V K94R (TGF-β2TM); assay: SPR, receptor injected over immobilized TGF-β2TM
Description: as §1
The TGF-β type III receptor binds TGF-β dimers with 1:1 stoichiometry. This was shown by comparing the maximal mass-normalized SPR response as increasing concentrations of the purified TGF-β type II receptor ectodomain (RII) and purified TGF-β type III receptor ectodomain (RIII) were injected over immobilized TGF-β2 K25R I92V K94R (TGF-β2TM), a variant of TGF-β2 that binds RII with high affinity (Baardsnes et al, 2009, Biochemistry, 48, 2146-2155; De Crescenzo et al, 2006, J Mol Biol, 355, 47-62).

B1: RII-RIII (REU) fusion (other)
chain: AAANGAVKFPQLCKFCDVRFSTCDNQKSCMSNCSITSICEKPQEVCVAVWRKNDENITLETVCHDPKLPYHDFILEDAASPKCIMKEKKKPGETFFMCSCSSDECNDNIIFSEEYNTSNPDGLGPVESSPGHGLDTAAACELSPINASHPVQALMESFTVLSGCASRGTTGLPREVHVLNLRSTDQGPGQRQREVTLHLNPIASVHTHHKPIVFLLNSPQPLVWHLKTERLAAGVPRLFLVSEGSVVQFPSGNFSLTAETEERNFPQENEHLLRWAQKEYGAVTSFTELKIARNIYIKVGEDQVFPPTCNIGKNFLSLNYLAEYLQPKAAEGCVLPSQPHEKEVHIIELITPSSNPYSAFQVDIIVDIRPAQEDPEVVKNLVLILKCKKSVNWVIKSFDVKGNLKVIAPNSIGFGKESERSMTMTKLVRDDIPSTQENLMKWALDNGYRPVTSYTMAPVANRFHLRLENNEEMRDEEVHTIPPELRILLDPDHPPALDNPLFPGEGSPNGGLPFPFPDIPRRGWKEGEDRIPRPKQPIVPSVQLLPDHREPEEVQGGVDIALSVKCDHEKMVVAVDKDSFQTNGYSGMELTLLDPSCKAKMNGTHFVLESPLNGCGTRHRRSTPDGVVYYNSIVVQAPSPGDSAGWPDGYEDLEAGDNGFPGDGDEGETAPLSRAGVVVFNCSLRQLRNPSGFQGQLDGNATFNMELYNTDLFLVPSPGVFSVAENEHVYVEVSVTKADQDLGFAIQTCFLSPYSNPDRMSDYTIIENICPKDDSVKFYSSKRVHFPIPHAEVDKKRFSFLFKSVFNTSLLFLHCELTLCSRKKGSLKLPRCVTPDDACTSLDATMIWTMMQNKKTFTKPLAVVLQVD
Question: Which “decrease of EC50 relative to RII or RIII (EU)” value (TGF-β3) does the source give for B1 here?
Answer: ≥ 0.5 log units and ~3 fold

B2: purified TGF-β type II receptor ectodomain (RII) (receptor)
chain: NGAVKFPQLCKFCDVRFSTCDNQKSCMSNCSITSICEKPQEVCVAVWRKNDENITLETVCHDPKLPYHDFILEDAASPKCIMKEKKKPGETFFMCSCSSDECNDNIIFSEEYNTSNPD
Question: B2 was tested. Which “fold reduction of the maximal mass normalized binding response in the presence of 80 nM RIII” value [1] did it give?
Answer: 2 fold

Question: What about the “amount in the isolated RII:RIII:TGF-β2TM complex” value [2] of the same binder?
Answer: 61.8 pmol

B3: purified TGF-β type III receptor ectodomain (RIII) (receptor)
chain: CELSPINASHPVQALMESFTVLSGCASRGTTGLPREVHVLNLRSTDQGPGQRQREVTLHLNPIASVHTHHKPIVFLLNSPQPLVWHLKTERLAAGVPRLFLVSEGSVVQFPSGNFSLTAETEERNFPQENEHLLRWAQKEYGAVTSFTELKIARNIYIKVGEDQVFPPTCNIGKNFLSLNYLAEYLQPKAAEGCVLPSQPHEKEVHIIELITPSSNPYSAFQVDIIVDIRPAQEDPEVVKNLVLILKCKKSVNWVIKSFDVKGNLKVIAPNSIGFGKESERSMTMTKLVRDDIPSTQENLMKWALDNGYRPVTSYTMAPVANRFHLRLENNEEMRDEEVHTIPPELRILLDPDHPPALDNPLFPGEGSPNGGLPFPFPDIPRRGWKEGEDRIPRPKQPIVPSVQLLPDHREPEEVQGGVDIALSVKCDHEKMVVAVDKDSFQTNGYSGMELTLLDPSCKAKMNGTHFVLESPLNGCGTRHRRSTPDGVVYYNSIVVQAPSPGDSAGWPDGYEDLEAGDNGFPGDGDEGETAPLSRAGVVVFNCSLRQLRNPSGFQGQLDGNATFNMELYNTDLFLVPSPGVFSVAENEHVYVEVSVTKADQDLGFAIQTCFLSPYSNPDRMSDYTIIENICPKDDSVKFYSSKRVHFPIPHAEVDKKRFSFLFKSVFNTSLLFLHCELTLCSRKKGSLKLPRCVTPDDACTSLDATMIWTMMQNKKTFTKPLAVVLQVD
notes: EU was made in CHO Lec 3.2.8.1 cells and purified on NiNTA, which implies a His tag that is not explicitly stated for EU; also called EU; RIII (EU)
Question: With B3 as the binder, how does the “maximal mass-normalized response relative to that of RII” value [3] read?
Answer: ~0.5 fold (ratio to RII)

Question: And the “amount in the isolated RII:RIII:TGF-β2TM complex” value [2]?
Answer: 62.4 pmol
